Paper PMC5828395 (Genes & Development, 2018)
Where no end group is shown, it is not given here.

How the values were obtained:
[1] = molecular target: GAS41 YEATS domain (amino acids 15–159) (human) (UniProt O95619); test: ITC
[2] = molecular target: GAS41 YEATS domain (amino acids 15–159) (human, UniProt O95619 15-159); test: ITC
Sequence of GAS41 YEATS domain (amino acids 15–159) (O95619 15-159): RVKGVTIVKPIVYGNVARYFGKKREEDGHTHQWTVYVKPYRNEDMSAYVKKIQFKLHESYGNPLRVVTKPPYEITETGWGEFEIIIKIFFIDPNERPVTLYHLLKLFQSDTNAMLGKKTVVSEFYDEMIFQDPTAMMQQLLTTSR

Sequence of GAS41 YEATS domain (amino acids 15–159) (human) (O95619 15-159): as above

Kd [1] [µM]	Kd [2] [µM]	Molecule
32.7	–	H3_(15–39)K27ac peptide (from UniProt P68431 16-40)
–	13	ARTKQTARKSTGGK(Ac)A (peptide, UniProt P68431 2-16, looked up) [H3_(1–15)K14ac peptide]
